Experimental findings from EP1188828A1 are described below.

For experiment [1], the target named is rat Reg-binding protein (rat Reg receptor, rat homologue of EXTL3/EXTR1) with N-terminal HA tag (rat). As to the kind of experiment: radioligand binding on CHO cells stably expressing HA-tagged rat Reg receptor.
Experiment [2] has the same target. As to the kind of experiment: cell-based or functional assay.
Experiment [3] shares this target. As to the kind of experiment: displacement of ^125I-labeled rat Reg protein from CHO cells stably expressing rat Reg receptor.
Experiment [4] shares this target. Briefly: displacement of ^125I-labeled rat Reg protein (competitor tracer) from CHO cells stably expressing rat Reg receptor.

B1: rat Reg protein (Reg I) (ligand, UniProt P10758 22-165, looked up)
chain: QEAEEDLPSARITCPEGSNAYSSYCYYFMEDHLSWAEADLFCQNMNSGYLVSVLSQAEGNFLASLIKESGTTAANVWIGLHDPKNNRRWHWSSGSLFLYKSWDTGYPNNSNRGYCVSVTSNSGYKKWRDNSCDAQLSFVCKFKA
modifications: [^125I] label by Bolton-Hunter reagent where used as the labelled tracer; unlabeled where used as competitor
By Kd is commonly meant a measure of binding affinity in units of concentration. Lower therefore signals tighter binding. As a reminder, the Ki is a measure of affinity in units of concentration, obtained from inhibition or displacement. In experiment [1], B1 had a Kd of 4.41 nM. In experiment [2], the BrdU incorporation of CHO cell line #3 stably expressing the Reg receptor was 4.01 nM and the BrdU incorporation of CHO cell line #22 stably expressing the Reg receptor was 1.11 nM. Moreover, the Ki in experiment [3] was determined as 1.61 nM.

B2: human REG protein (REG Iα) (ligand, UniProt P05451 23-166, looked up)
chain: QEAQTELPQARISCPEGTNAYRSYCYYFNEDRETWVDADLYCQNMNSGNLVSVLTQAEGAFVASLIKESGTDDFNVWIGLHDPKKNRRWHWSSGSLVSYKSWGIGAPSSVNPGYCVSLTSSTGFQKWKDVPCEDKFSFVCKFKN
In experiment [4], B2 had a Ki of 7.41 nM.
